Reference: US20180022820A1

Tests used:
[1] = molecular target: FcRn (Sino Biological Inc, CT009-H08H) (UniProt P55899); assay: SPR (Biacore X100), FcRn-His captured on anti-His IgG chip, antibody as analyte, steady-state affinity fit; second run
[2] = molecular target: FcRn (Sino Biological Inc, CT009-H08H) (UniProt P55899); assay: SPR (Biacore X100), FcRn-His captured on anti-His IgG chip, antibody as analyte, steady-state affinity fit; first run
[3] = molecular target: FcRn (Sino Biological Inc, CT009-H08H) (UniProt P55899); assay: SPR (Biacore X100), FcRn-His captured on anti-His IgG chip, antibody as analyte, steady-state affinity fit; mean of the two runs

Kd [1]: 450 nM | Kd [2]: 534 nM | Kd [3]: 492 nM
Substance: MIL41: a PERJETA sample as prepared by the inventors, which is in consistence with the amino acid sequence of PERJETA (antibody)
